Measured values reported in the Human Domainome abundance scans (Beltran et al. 2025).

B1: Friend leukemia integration 1 transcription factor, residues 116 to 197; numbered along this chain, Q01543 (parent)
chain: NMTTNERRVIVPADPTLWTQEHVRQWLEWAIKEYSLMEIDTSFFQNMDGKELCKMNKEDFLRATTLYNTEVLLSHLSYLRES

Variants of: B1
Assay: abundance fitness (aPCA) (normalised: wild type 0, dead -1); higher = more abundant; growth selection in yeast, the domain comes from the species named
Conditions: Homo sapiens

Abundance fitness of substitutions, site by site:
K54: G -0.015 | H -0.494 | L -0.017 | M 0.021 | N 0.02 | P -0.687 | Q -0.057 | R -0.063 | S -0.01 | T -0.204 | V -0.14 | W -0.396 | Y -0.359
M55: A -0.119 | C 0.007 | E -0.805 | G -0.75 | I -0.381 | K 0.021 | L 0.011 | N -0.752 | P -0.784 | Q -0.158 | R -0.444 | S -0.424 | T -0.204 | V -0.331 | W -0.04 | Y -0.273
N56: A -0.091 | C -0.157 | D -0.033 | E 0.178 | F -0.515 | G 0.049 | H 0.12 | I -0.247 | K 0.125 | L -0.129 | M -0.002 | P -0.155 | Q -0.043 | R -0.226 | S -0.043 | V -0.054 | W -0.221 | Y -0.54
K57: A -0.268 | C -0.212 | D -0.312 | E -0.135 | F -0.451 | G -0.433 | H -0.52 | L -0.213 | M 0.008 | N -0.071 | Q 0.043 | R -0.052 | S -0.319 | T -0.086 | V -0.013 | W -0.124 | Y -0.145
E58: A 0.119 | C -0.11 | F -0.228 | G 0.028 | K -0.162 | L -0.117 | M -0.19 | N 0.048 | P 0.01 | R -0.032 | T -0.053 | V -0.17 | W -0.153 | Y 0.015
D59: A -0.035 | C -0.046 | E -0.184 | F -0.144 | G -0.058
